The text below walks through data of paper PMC4729479.

This test concerns the target hemagglutinin-esterase-fusion glycoprotein (HEF) of influenza D virus D/swine/Oklahoma/1334/2011, ectodomain (influenza D virus (D/swine/Oklahoma/1334/2011)). Briefly: crystal structure.

As to “hemagglutinin-esterase-fusion glycoprotein (HEF) of influenza D virus D/swine/Oklahoma/1334/2011, ectodomain (domain or fragment)”, the stoichiometry N turned out to be 3.

The term stoichiometry N denotes the number of molecules, sites or subunits per partner or assembly.
